One test deals with T1, human insulin receptor (Homo sapiens, UniProt P06213).
T1 construct: expressed in transfected cells; plasma membrane fragments
The test is described as follows: Insulin receptor competition binding assay (scintillation proximity). To be noted: Table 8. On the technique in general: In a scintillation proximity assay essentially only radioactivity close to the scintillant gives light.

A further test has as its target IR-B (Homo sapiens, UniProt P06213). Put plainly: In vitro activity at IR-B relative to native insulin. To be noted: for % Insulin Activity IR-B: Table 17. Type of test: cell-based.
The target in the next test is IR-A (Homo sapiens, UniProt P06213). The test is described as follows: In vitro activity at IR-A relative to native insulin. Type of test: cell-based.
The next test deals with IGF-1 R (Homo sapiens, UniProt P08069). The test is described as follows: In vitro activity at IGF-1 R relative to native insulin. It counts as cell-based. As to conditions: for % Insulin Activity IGF-1 R: Table 17.
The next test concerns mice. Put plainly: Comparative insulin tolerance test in mice. Type of test: in vivo. To be noted: result in words. The protocol: The activity of the compounds in vivo was also tested by administering the compounds to mice. Food was removed four hours prior to administering peptide to normal mice and withheld for the duration of the study. Glucose was measured just prior to administration of test compounds and at 1, 2, 3, 6 and 8, 12, 16, 20 and 24 hours after administration. […] FIGS. 29B and 29C provide data on blood glucose concentrations over 8 hours after administration of the listed analogs.
The compounds were tested at two different concentrations (27 nmol/kg and 90nmol/kg).
This single chain analog comprises a 20 kDa PEG linked to the side chain of the single lysine residue in the linking moiety (PEG8-K-PEG4) that joins the A chain and the B chain. […] FIGS. 33C and 33D show the blood glucose AUC24 hrs in mice administered Detemir and MIU-56, respectively.

Read-outs that look alike come from different tables or passages of the source. Primed or numbered codes have the meaning given here. Where no end group is shown, it is not given here. [ ]: non-standard residue; d: D form. PEG8′ = non-peptide PEG linker of 8 ethylene glycol units Where only a bound is given, the exact number is not on record here.

For `CC[C@H](C)[C@H](NC(=O)CNC(=O)[C@@H]1CCCN1C(=O)[C@H](C)N)C(=O)N[C@H](C(=O)N[C@@H](CC(=O)O)C(=O)N[C@@H](CCC(=O)O)C(=O)N[C@H]1CSSC[C@@H]2NC(=O)[C@H](CO)NC(=O)[C@H](CCCNC(=N)N)NC(=O)[C@H](Cc3ccccc3)NC(=O)[C@H](CSSC[C@H](NC(=O)[C@H](CC(C)C)NC(=O)[C@@H](NC(=O)[C@H](CCC(=O)O)NC(=O)[C@@H]3CCCN3C(=O)CN)[C@@H](C)O)C(=O)NCC(=O)N[C@@H](C)C(=O)N[C@@H](CCC(=O)O)C(=O)N[C@@H](CC(C)C)C(=O)N[C@@H](C(C)C)C(=O)N[C@@H](CC(=O)O)C(=O)N[C@@H](C)C(=O)N[C@@H](CC(C)C)C(=O)N[C@@H](Cc3ccc(O)cc3)C(=O)N[C@@H](CC(C)C)C(=O)N[C@@H](C(C)C)C(=O)N[C@H](C(=O)NCC(=O)N[C@@H](CC(=O)O)C(=O)N[C@@H](CCCNC(=N)N)C(=O)NCC(=O)N[C@@H](Cc3ccccc3)C(=O)N[C@@H](Cc3ccc(O)cc3)C(=O)N[C@@H](Cc3ccccc3)C(=O)N[C@@H](CC(N)=O)C(=O)N[C@@H](CCCCN)C(=O)N3CCC[C@H]3C(=O)N[C@H](C(N)=O)[C@@H](C)O)CSSC[C@@H](C(=O)N[C@@H](C)C(N)=O)NC(=O)[C@H](Cc3ccc(O)cc3)NC(=O)[C@H](CCSC)NC(=O)[C@H](CCC(=O)O)NC(=O)[C@H](CC(C)C)NC(=O)[C@H](CCCNC(=N)N)NC(=O)[C@H](CCCNC(=N)N)NC(=O)[C@H](CC(C)C)NC(=O)[C@H](CC(=O)O)NC2=O)NC1=O)C(C)C` [IGF1(Y^B16L^B17)(AlaPro)^A-1, 0], the “% of Insulin Activity” value on human insulin receptor worked out at 37.12%.

The molecule “B1, A14-10K B^1(H5, 10Y16L17R29)29: A^1(H8K14N18, 21) (chain 1 GPEHLCGAHLVDALYLVCGDRGFYFNKR; chain 2 GIVDECCHRSCDLKRLENYCN) [di-10K-TC]” displayed an IR-B in the test with IR-B (Table 19) of 2.1%. Also, the IR-A with IR-A (Table 19) is 6.4%.

In turn, “B1, A14-10K B^1(H5, 10Y16L17R29)30-C^1des9-12-A^1(H8, K14, N18, 21) (GPEHLCGAHLVDALYLVCGDRGFYFNKRTGYGSSSRRGIVDECCHRSCDLKRLENYCN) [MIU-79]” displayed an IR-B with IR-B (Table 19) of 0.2%. In addition, the IR-A in the test with IR-A (Table 19) was determined as 1.7%.

Consider “B1-20K B^1(H5, 10Y16L17K29)29-A^1(H8N18, 21) [MIU-77]”, for which, at IR-A, the IR-A was determined as 0.1% and the “activity at the insulin type-A receptor on addition of a 20 kDa PEG” value is ~100 fold.

Turning to “B1-20K B^1(H5, 10Y16L17K29)29: A^1(H8N18, 21) [MIU-78]”, on IR-B, the IR-B was 3.2%. At IR-A, this molecule gave an IR-A of 8.2%.

With “B^1(A5H10Y16L17)25-C^1-A^1(H8N18N21) [Ala, B5]”, the “IGF-1 R” value on IGF-1 R (Table 18) amounted to 2.5%. Also, at IR-B (Table 18), the IR-B was 5.7%.

“B^1(C16-K0,H5,H10,Y16,L17)25a: A^1(N18,N21) [MIU-36]”: the “ability to reduce and sustain low blood glucose” value in the test on mice was “more basal and sustained lowered glucose levels relative to native insulin”.

For “B^1(H5, 10Y16L17)25-C^1-A^1(T8N18, 21) (GPEHLCGAHLVDALYLVCGDRGFYGYGSSSRRAPQTGIVDECCTRSCDLRRLENYCN) [Thr, A8]”, in the test with IGF-1 R (Table 18), the “IGF-1 R” value is reported as 3.7%. The molecule further showed an IR-B with IR-B (Table 18) of 8.4%. The IR-A in the test with IR-A (Table 18) is 20.4%.

Consider “B^1(H5, 10Y16L17A24)25-C^1-A^1(H8N18, N21) [Ala, B24]”, for which the “IGF-1 R” value at IGF-1 R is listed as 0.3%. Besides, at IR-B, the IR-B came to 0.4%. On IR-A, this molecule gave an IR-A of 0.1%.

As for “B^1(H5, 10Y16L17K29)29-A^1(H8, N18, 21) [DP3(SC)]”, on IR-A (Table 19), the IR-A is recorded as 0.03%.

For “B^1(H5, 10Y16L17K29)29: A^1(H8, N18, 21) [DP3(TC)]”, on IR-B (Table 19), the IR-B stood at 33.1%. In addition, the IR-A on IR-A (Table 19) is 159.8%.

On to “B^1(H5, 10Y16L17R29)30-C^1des9-12-A^1(H8, K14, N18, 21) (GPEHLCGAHLVDALYLVCGDRGFYFNKRTGYGSSSRRGIVDECCHRSCDLKRLENYCN) [DP8Mut3KA14]”, for which the IR-B with IR-B (Table 19) is reported as 12.6%. The molecule further yielded an IR-A in the test with IR-A (Table 19) of 132.2%.

For the molecule “B^1(H5, 10Y16L17R29)30-C^1des9-12-A^1(H8, N18, 21) (GPEHLCGAHLVDALYLVCGDRGFYFNKRTGYGSSSRRGIVDECCHRSCDLRRLENYCN) [MIU-43]”, the IGF-1 R with IGF-1 R (Table 19) is on record as 14.2%. For the same molecule, the IR-B with IR-B (Table 19) worked out at 16.7%. For the same molecule, in the test with IR-A (Table 19), the IR-A is on record as 97.5%.

For the molecule “B^1(H5,H10,Y16,L17)25-C^1-A^1(H8,N18,N21) (GPEHLCGAHLVDALYLVCGDRGFYGYGSSSRRAPQTGIVDECCHRSCDLRRLENYCN) [MIU-35]”, in the test with IGF-1 R, the “% Insulin Activity IGF-1 R” value was determined as 3.2%. For the same molecule, in the test with IGF-1 R (Table 18), the “IGF-1 R” value was found to be 3.2%. The same molecule came in with an IR-B in the test with IR-B (Table 18) of 17.4%. The same molecule registered an IR-A with IR-A (Table 18) of 61.4%.

In the case of “B^1(H5,H10,Y16,L17)25a: A^1(H8,rEC16-K14,N18,N21) [MIU-41]”, the “ability to reduce and sustain low blood glucose” value in the test with mice is “more basal and sustained lowered glucose levels relative to native insulin”.

With “B^1(H5,H10,Y16,L17,C16rE-K22)25a: A^1(N18,N21) [MIU-37]”, the “ability to reduce and sustain low blood glucose” value with mice is “more basal and sustained lowered glucose levels relative to native insulin”.

Regarding “B^1(H5,Y16,L17)25-C^1(K8)-A^1(K14, N18,21) (GPEHLCGAELVDALYLVCGDRGFYGYGSSSRKAPQTGIVDECCFRSCDLKRLENYCN) [MIU-69, two 10K PEG chains, at the N-terminus and at amino acid A14]”, the “% Insulin Activity IGF-1 R” value with IGF-1 R is <0.1%.

Turning to “B^1(H5,Y16,L17)25-C^1(K8)-A^1(N18,21) (GPEHLCGAELVDALYLVCGDRGFYGYGSSSRKAPQTGIVDECCFRSCDLRRLENYCN) [MIU-67, two 10K PEG chains, at the N-terminus and at position C8]”, the “% Insulin Activity IGF-1 R” value in the test with IGF-1 R is <0.1%. The “% Insulin Activity IR-B” value with IR-B turned out to be 0.1%. Besides, the “ability to reduce and sustain low blood glucose” value in the test with mice is given as “roughly equivalent to MIU-59 administered at 40 nmol/kg”.

“B^1(H5,Y16,L17, K22)25-C^1(K8)-A^1(N18,21) (GPEHLCGAELVDALYLVCGDKGFYGYGSSSRKAPQTGIVDECCFRSCDLRRLENYCN) [MIU-68, two 10K PEG chains, at the N-terminus and at amino acid B22]”: the “% Insulin Activity IGF-1 R” value in the test with IGF-1 R was <0.1%. In addition, in the test with IR-B, the “% Insulin Activity IR-B” value turned out to be 0.1%.

As for “C8-PEG20K B^1(H5, Y16, L17)25-PEG8-K-PEG4-A^1(N18, N21) (GPEHLCGAELVDALYLVCGDRGFY[PEG8′]KGIVDECCFRSCDLRRLENYCN; not fully specified (some residues, bridges); ends and bridges not checked) [MIU-56]”, the “ability to reduce and sustain low blood glucose” value in the test with mice is “sustained duration of action for 24 hours”.

In the case of “GE5W-B^1(A5H10Y16L17)25-C^1-A^1(H8N18N21) [GE5W-Ala, B5]”, at IGF-1 R (Table 18), the “IGF-1 R” value is on record as 0.3%. This molecule showed an IR-B on IR-B (Table 18) of 2.3%. At IR-A (Table 18), this molecule yielded an IR-A of 8.6%.

B1: GE5W-B^1(H5, 10Y16L17)25-C^1-A^1(A1H8N18, 21) (peptide)
chain: GEEEEEWGPEHLCGAHLVDALYLVCGDRGFYGYGSSSRRAPQTAIVDECCHRSCDLRRLENYCN
For B1, in the test with IGF-1 R (Table 18), the “IGF-1 R” value worked out at 0.5%. In addition, the IR-B with IR-B (Table 18) is reported as 0.7%. In the test with IR-A (Table 18), the IR-A was 2.1%.
